From patent publication US20160145657A1, “Methods and Materials for Producing 7-Carbon Chemicals via a C9 Route” (INVISTA North America S.á.r.l., priority 2014, published 2016) come the findings set out here.

Experiment [1] can be described thus: carboxylate reductase activity, pimelate to pimelate semialdehyde, NADPH consumption at 340 nm. In kind it is biochemical. Conditions: purified enzyme enhanced by sfp gene product, 2 mM pimelate, pH 7.5, room temperature, 20 min; FIG. 8. As for the experimental part: A nucleotide sequence encoding a HIS-tag was added to the nucleic acid sequences from Segniliparus rugosus and Segniliparus rotundus that encode the carboxylate reductases of SEQ ID NOs: 4 (EFV11917.1) and 6 (ADG98140.1), respectively (see FIG. 6), such that N-terminal HIS tagged carboxylate reductases could be produced. Each of the modified genes was cloned into a pET Duet expression vector along with a sfp gene encoding a HIS-tagged phosphopantetheine transferase from Bacillus subtilis, both under the T7 promoter. Each expression vector was transformed into a BL21[DE3] E. coli host and the resulting recombinant E. coli strains were cultivated at 37° C. in a 250 mL shake flask culture containing 50 mL LB media and antibiotic selection pressure, with shaking at 230 rpm. Each culture was induced overnight at 37° C. using an auto-induction media.
The pellet from each induced shake flask culture was harvested via centrifugation. Each pellet was resuspended and lysed via sonication, and the cell debris was separated from the supernatant via centrifugation. […]
Enzyme activity assays (i.e., from pimelate to pimelate semialdehyde) were performed in triplicate in a buffer composed of a final concentration of 50 mM HEPES buffer (pH=7.5), 2 mM pimelate, 10 mM MgCl2, 1 mM ATP and 1 mM NADPH. […] The consumption of NADPH was monitored by absorbance at 340 nm. […]

Experiment [2] in a line: carboxylate reductase activity, N7-acetyl-7-aminoheptanoate to N7-acetyl-7-aminoheptanal, NADPH consumption at 340 nm. In kind it is biochemical. Conditions: purified enzyme enhanced by sfp gene product, 2 mM N7-acetyl-7-aminoheptanoate, pH 7.5, room temperature, 20 min; FIG. 10. As for the experimental part:
The activity of each of the N-terminal His-tagged carboxylate reductases of SEQ ID NOs: 3, 5, and 6 (see Examples 2 and 3, and FIG. 6) for converting N7-acetyl-7-aminoheptanoate to N7-acetyl-7-aminoheptanal was assayed in triplicate in a buffer composed of a final concentration of 50 mM HEPES buffer (pH=7.5), 2 mM N7-acetyl-7-aminoheptanoate, 10 mM MgCl2, 1 mM ATP, and 1 mM NADPH. The assays were initiated by adding purified carboxylate reductase and phosphopantetheine transferase or the empty vector control to the assay buffer containing the N7-acetyl-7-aminoheptanoate then incubated at room temperature for 20 min. The consumption of NADPH was monitored by absorbance at 340 nm.

B1: SEQ ID NO: 4: Segniliparus rugosus carboxylate reductase, Genbank Accession No. EFV11917.1 (protein)
chain: MGDGEERAKRFFQRIGELSATDPQFAAAAPDPAVVEAVSDPSLSFTRYLDTLMRGYAERPALAHRVGAGYETISYGELWARVGAIAAAWQADGLAPGDFVATVGFTSPDYVAVDLAAARSGLVSVPLQAGASLAQLVGILEETEPKVLAASASSLEGAVACALAAPSVQRLVVFDLRGPDASESAADERRGALADAEEQLARAGRAVVVETLADLAARGEALPEAPLFEPAEGEDPLALLIYTSGSTGAPKGAMYSQRLVSQLWGRTPVVPGMPNISLHYMPLSHSYGRAVLAGALSAGGTAHFTANSDLSTLFEDIALARPTFLALVPRVCEMLFQESQRGQDVAELRERVLGGRLLVAVCGSAPLSPEMRAFMEEVLGFPLLDGYGSTEALGVMRNGIIQRPPVIDYKLVDVPELGYRTTDKPYPRGELCIRSTSLISGYYKRPEITAEVFDAQGYYKTGDVMAEIAPDHLVYVDRSKNVLKLSQGEFVAVAKLEAAYGTSPYVKQIFVYGNSERSFLLAVVVPNAEVLGARDQEEAKPLIAASLQKIAKEAGLQSYEVPRDFLIETEPFTTQNGLLSEVGKLLRPKLKARYGEALEARYDEIAHGQADELRALRDGAGQRPVVETVVRAAVAISGSEGAEVGPEANFADLGGDSLSALSLANLLHDVFEVEVPVRIIIGPTASLAGIAKHIEAERAGASAPTAASVHGAGATRIRASELTLEKFLPEDLLAAAKGLPAADQVRTVLLTGANGWLGRFLALEQLERLARSGQDGGKLICLVRGKDAAAARRRIEETLGTDPALAARFAELAEGRLEVVPGDVGEPKFGLDDAAWDRLAEEVDVIVHPAALVNHVLPYHQLFGPNVVGTAEIIRLAITAKRKPVTYLSTVAVAAGVEPSSFEEDGDIRAVVPERPLGDGYANGYGNSKWAGEVLLREAHELVGLPVAVFRSDMILAHTRYTGQLNVPDQFTRLVLSLLATGIAPKSFYQQGAAGERQRAHYDGIPVDFTAEAITTLGAEPSWFDGGAGFRSFDVFNPHHDGVGLDEFVDWLIEAGHPISRIDDHKEWFARFETAVRGLPEAQRQHSLLPLLRAYSFPHPPVDGSVYPTGKFQGAVKAAQVGSDHDVPHLGKALIVKYADDLKALGLL
With B1, the “acceptance of pimelate as substrate (NADPH consumption) against the empty vector control” value in experiment [1] is “accepted pimelate as substrate”.

B2: SEQ ID NO 5: Mycobacterium abscessus subsp. bolletii (Mycobacterium massiliense) carboxylate reductase, Genbank Accession No. EIV11143.1 (protein)
chain: MTNETNPQQEQLSRRIESLRESDPQFRAAQPDPAVAEQVLRPGLHLSEAIAALMTGYAERPALGERARELVIDQDGRTTLRLLPRFDTTTYGELWSRTTSVAAAWHHDATHPVKAGDLVATLGFTSIDYTVLDLAIMILGGVAVPLQTSAPASQWTTILAEAEPNTLAVSIELIGAAMESVRATPSIKQVVVFDYTPEVDDQREAFEAASTQLAGTGIALETLDAVIARGAALPAAPLYAPSAGDDPLALLIYTSGSTGAPKGAMHSENIVRRWWIREDVMAGTENLPMIGLNFMPMSHIMGRGTLTSTLSTGGTGYFAASSDMSTLFEDMELIRPTALALVPRVCDMVFQRFQTEVDRRLASGDTASAEAVAAEVKADIRDNLFGGRVSAVMVGSAPLSEELGEFIESCFELNLTDGYGSTEAGMVFRDGIVQRPPVIDYKLVDVPELGYFSTDKPHPRGELLLKTDGMFLGYYKRPEVTASVFDADGFYMTGDIVAELAHDNIEIIDRRNNVLKLSQGEFVAVATLEAEYANSPVVHQIYVYGSSERSYLLAVVVPTPEAVAAAKGDAAALKTTIADSLQDIAKEIQLQSYEVPRDFIIEPQPFTQGNGLLTGIAKLARPNLKAHYGPRLEQMYAEIAEQQAAELRALHGVDPDKPALETVLKAAQALLGVSSAELAADAHFTDLGGDSLSALSFSDLLRDIFAVEVPVGVIVSAANDLGGVAKFVDEQRHSGGTRPTAETVHGAGHTEIRAADLTLDKFIDEATLHAAPSLPKAAGIPHTVLLTGSNGYLGHYLALEWLERLDKTDGKLIVIVRGKNAEAAYGRLEEAFDTGDTELLAHFRSLADKHLEVLAGDIGDPNLGLDADTWQRLADTVDVIVHPAALVNHVLPYNQLFGPNVVGTAEIIKLAITTKIKPVTYLSTVAVAAYVDPTTFDEESDIRLISAVRPIDDGYANGYGNAKWAGEVLLREAHDLCGLPVAVFRSDMILAHSRYTGQLNVPDQFTRLILSLIATGIAPGSFYQAQTTGERPLAHYDGLPGDFTAEAITTLGTQVPEGSEGFVTYDCVNPHADGISLDNFVDWLIEAGYPIARIDNYTEWFTRFDTAIRGLSEKQKQHSLLPLLHAFEQPSAAENHGVVPAKRFQHAVQAAGIGPVGQDGTTDIPHLSRRLIVKYAKDLEQLGLL
As to B2, the “acceptance of N7-acetyl-7-aminoheptanoate as substrate (NADPH consumption) against the empty vector control” value in experiment [2] was “accepted N7-acetyl-7-aminoheptanoate as substrate”.
